The results in this text go back to paper PMC2367712.

The assay addresses M. tuberculosis Lsr2 R86A mutant protein (M. tuberculosis). The assay can be described thus: cross-linking.

“And” between values parts separate entries of the source, which are not always exact repeats. Identical values can stand only once.

For orientation: stoichiometry N means a count of units in the complex or per binding partner.

As to “M. tuberculosis Lsr2 R86A mutant protein (natural protein)”, the stoichiometry N was 2 and 4.
